Results: PMC4047056

Target: Kv2.1 subunit (unlabeled) (human) (UniProt Q14721)

midpoint of the voltage dependence of inactivation, V1/2, of whole-cell currents in HEK293 cells co-expressing Kv2.1 and Kv6.4 (Kv2.1 alone: −22.6 mV): -59.3 mV
B1: Kv6.4 subunit (unlabeled) (natural protein)
chain: MPMPSRDGGLHPRHHHYGSHSPWSQLLSSPMETPSIKGLYYRRVRKVGALDASPVDLKKEILINVGGRRYLLPWSTLDRFPLSRLSKLRLCRSYEEIVQLCDDYDEDSQEFFFDRSPSAFGVIVSFLAAGKLVLLQEMCALSFQEELAYWGIEEAHLERCCLRKLLRKLEELEELAKLHREDVLRQQRETRRPASHSSRWGLCMNRLREMVENPQSGLPGKVFACLSILFVATTAVSLCVSTMPDLRAEEDQGECSRKCYYIFIVETICVAWFSLEFCLRFVQAQDKCQFFQGPLNIIDILAISPYYVSLAVSEEPPEDGERPSGSSYLEKVGLVLRVLRALRILYVMRLARHSLGLQTLGLTVRRCTREFGLLLLFLAVAITLFSPLVYVAEKESGRVLEFTSIPASYWWAIISMTTVGYGDMVPRSVPGQMVALSSILSGILIMAFPATSIFHTFSHSYLELKKEQEQLQARLRHLQNTGPASECELLDPHVASEHELMNDVNDLILEGPALPIMHM
